According to publication PMC2873289, “A Helix Replacement Mechanism Directs Metavinculin Functions” (PLoS ONE, 2010):

Legend:
[1] = molecular target: the molecule itself; assay: band on SDS-PAGE of the pull-down eluate, identified by Western blot; band seen in the lanes where GST-Vt and PIP2 are present
[2] = molecular target: T1, metavinculin-ΔH1 (lacking residues 895–915) (human, UniProt P18206 1-1134, lacking residues 895–915); assay: pull-down; GST-Vt (0.5 µM) on GST-Sepharose beads, with or without pre-incubation with 5 µM PIP2; 15 µM His8-tagged metavinculin or deletion mutant pre-activated with talin-VBS3, 1 hr 37°C; 20 mM Tris-HCl pH 8, 150 mM NaCl; eluted with glutathione, SDS-PAGE, Western blot; settings: both partners purified
T1 construct: human metavinculin, full length (1-1,134) lacking residues 895-915 (α-helix H1): 1-894 joined to 916-1,134; also called MV-ΔH1; source: E. coli BL21-DE3, purified (as full-length metavinculin); not shown: His8, N-terminal, kept
T1 sequence (looked up): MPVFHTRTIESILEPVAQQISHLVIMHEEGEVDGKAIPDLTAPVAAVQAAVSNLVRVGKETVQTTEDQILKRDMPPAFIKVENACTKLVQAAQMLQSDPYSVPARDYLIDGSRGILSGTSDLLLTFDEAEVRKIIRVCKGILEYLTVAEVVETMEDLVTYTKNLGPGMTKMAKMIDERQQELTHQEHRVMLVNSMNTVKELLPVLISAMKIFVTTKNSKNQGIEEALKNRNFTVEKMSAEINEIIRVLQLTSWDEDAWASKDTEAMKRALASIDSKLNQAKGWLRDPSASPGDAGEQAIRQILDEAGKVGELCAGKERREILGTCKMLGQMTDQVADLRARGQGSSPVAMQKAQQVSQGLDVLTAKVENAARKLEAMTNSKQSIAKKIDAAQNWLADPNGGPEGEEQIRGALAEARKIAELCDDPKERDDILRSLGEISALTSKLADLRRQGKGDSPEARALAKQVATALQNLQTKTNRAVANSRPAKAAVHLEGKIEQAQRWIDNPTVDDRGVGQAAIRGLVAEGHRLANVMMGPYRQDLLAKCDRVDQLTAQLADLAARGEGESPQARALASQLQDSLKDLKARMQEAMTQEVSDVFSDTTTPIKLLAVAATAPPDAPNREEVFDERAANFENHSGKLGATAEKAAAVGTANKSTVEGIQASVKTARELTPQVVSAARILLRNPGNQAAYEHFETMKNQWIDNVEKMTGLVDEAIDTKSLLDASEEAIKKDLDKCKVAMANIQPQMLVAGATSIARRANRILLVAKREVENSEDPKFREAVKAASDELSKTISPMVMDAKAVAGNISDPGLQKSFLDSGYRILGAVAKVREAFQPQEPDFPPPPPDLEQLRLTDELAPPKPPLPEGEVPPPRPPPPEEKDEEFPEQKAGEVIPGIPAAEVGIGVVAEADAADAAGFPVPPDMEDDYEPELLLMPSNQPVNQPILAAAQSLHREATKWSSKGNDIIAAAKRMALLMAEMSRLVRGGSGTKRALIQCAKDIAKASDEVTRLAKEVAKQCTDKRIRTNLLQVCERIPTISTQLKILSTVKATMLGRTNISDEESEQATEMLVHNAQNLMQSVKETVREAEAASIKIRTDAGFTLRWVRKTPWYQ

binding result [2]: binds
B1: GST tagged vinculin tail domain (GST-Vt; residues 879–1,066) (domain or fragment, human, UniProt P18206-2 879-1066, looked up)
chain: EEKDEEFPEQKAGEVINQPMMMAARQLHDEARKWSSKGNDIIAAAKRMALLMAEMSRLVRGGSGTKRALIQCAKDIAKASDEVTRLAKEVAKQCTDKRIRTNLLQVCERIPTISTQLKILSTVKATMLGRTNISDEESEQATEMLVHNAQNLMQSVKETVREAEAASIKIRTDAGFTLRWVRKTPWYQ
notes: human vinculin tail domain, residues 879-1,066 of vinculin (1,066-residue isoform), cloned in pGEX-4T-1; source: E. coli BL21-DE3, purified (GSTrap FF, Superdex 75)
stoichiometry N [1]: 2
